Source: article doi:10.1101/2025.01.11.632576 (bioRxiv, 2025)

Target: HER2 VHH (2Rs15d) I29D
Experiment: SPR

Molecule	Kd
recombinant human HER2 (AA 23-653) (from UniProt P04626 23-653) (domain or fragment)	3.1 nM

Target: HER2 VHH (2Rs15d) L102A
Experiment: SPR

Molecule	Kd
recombinant human HER2 (AA 23-653) (from UniProt P04626 23-653) (domain or fragment)	3.1 nM

Target: HER2 VHH (2Rs15d) L102S
Experiment: SPR

Molecule	Kd
recombinant human HER2 (AA 23-653) (from UniProt P04626 23-653) (domain or fragment)	3.6 nM

Target: recombinant human HER2 (AA 23-653) (Homo sapiens, UniProt P04626)
Experiment: SPR

Molecule	binding result	Kd
HER2 VHH (2Rs15d) Y28K (VHH) VHH: QVQLQESGGGSVQAGGSLKLTCAASGKIFNSCGMGWYRQSPGRERELVSRISGDGDTWHKESVKGRFTISQDNVKKTLYLQMNSLKPEDTAVYFCAVCYNLETYWGQGTQVTVSS	binds	
HER2 VHH (2Rs15d) Y28A (VHH) VHH: QVQLQESGGGSVQAGGSLKLTCAASGAIFNSCGMGWYRQSPGRERELVSRISGDGDTWHKESVKGRFTISQDNVKKTLYLQMNSLKPEDTAVYFCAVCYNLETYWGQGTQVTVSS	binds	
HER2 VHH (2Rs15d) S32K (VHH) VHH: QVQLQESGGGSVQAGGSLKLTCAASGYIFNKCGMGWYRQSPGRERELVSRISGDGDTWHKESVKGRFTISQDNVKKTLYLQMNSLKPEDTAVYFCAVCYNLETYWGQGTQVTVSS		31 nM
HER2 VHH (2Rs15d) Y28D (VHH) VHH: QVQLQESGGGSVQAGGSLKLTCAASGDIFNSCGMGWYRQSPGRERELVSRISGDGDTWHKESVKGRFTISQDNVKKTLYLQMNSLKPEDTAVYFCAVCYNLETYWGQGTQVTVSS	binds	
HER2 VHH (2Rs15d) Y28S (VHH) VHH: QVQLQESGGGSVQAGGSLKLTCAASGSIFNSCGMGWYRQSPGRERELVSRISGDGDTWHKESVKGRFTISQDNVKKTLYLQMNSLKPEDTAVYFCAVCYNLETYWGQGTQVTVSS	binds	
HER2 VHH (2Rs15d) G54S (VHH) VHH: QVQLQESGGGSVQAGGSLKLTCAASGYIFNSCGMGWYRQSPGRERELVSRISSDGDTWHKESVKGRFTISQDNVKKTLYLQMNSLKPEDTAVYFCAVCYNLETYWGQGTQVTVSS	binds	
HER2 VHH (2Rs15d) N101D (VHH) VHH: QVQLQESGGGSVQAGGSLKLTCAASGYIFNSCGMGWYRQSPGRERELVSRISGDGDTWHKESVKGRFTISQDNVKKTLYLQMNSLKPEDTAVYFCAVCYDLETYWGQGTQVTVSS	binds	
HER2 VHH (2Rs15d) T58A (VHH) VHH: QVQLQESGGGSVQAGGSLKLTCAASGYIFNSCGMGWYRQSPGRERELVSRISGDGDAWHKESVKGRFTISQDNVKKTLYLQMNSLKPEDTAVYFCAVCYNLETYWGQGTQVTVSS	binds	
HER2 VHH (2Rs15d) T58K (VHH) VHH: QVQLQESGGGSVQAGGSLKLTCAASGYIFNSCGMGWYRQSPGRERELVSRISGDGDKWHKESVKGRFTISQDNVKKTLYLQMNSLKPEDTAVYFCAVCYNLETYWGQGTQVTVSS	binds	
HER2 VHH (2Rs15d) D55K (VHH) VHH: QVQLQESGGGSVQAGGSLKLTCAASGYIFNSCGMGWYRQSPGRERELVSRISGKGDTWHKESVKGRFTISQDNVKKTLYLQMNSLKPEDTAVYFCAVCYNLETYWGQGTQVTVSS	binds	

Now from value to molecule:

binding result	Kd	Molecule
binds		HER2 VHH (2Rs15d) T58S (VHH) VHH: QVQLQESGGGSVQAGGSLKLTCAASGYIFNSCGMGWYRQSPGRERELVSRISGDGDSWHKESVKGRFTISQDNVKKTLYLQMNSLKPEDTAVYFCAVCYNLETYWGQGTQVTVSS
binds		HER2 VHH (2Rs15d) T58D (VHH) VHH: QVQLQESGGGSVQAGGSLKLTCAASGYIFNSCGMGWYRQSPGRERELVSRISGDGDDWHKESVKGRFTISQDNVKKTLYLQMNSLKPEDTAVYFCAVCYNLETYWGQGTQVTVSS
binds		HER2 VHH (2Rs15d) G54D (VHH) VHH: QVQLQESGGGSVQAGGSLKLTCAASGYIFNSCGMGWYRQSPGRERELVSRISDDGDTWHKESVKGRFTISQDNVKKTLYLQMNSLKPEDTAVYFCAVCYNLETYWGQGTQVTVSS
binds		HER2 VHH (2Rs15d) G54A (VHH) VHH: QVQLQESGGGSVQAGGSLKLTCAASGYIFNSCGMGWYRQSPGRERELVSRISADGDTWHKESVKGRFTISQDNVKKTLYLQMNSLKPEDTAVYFCAVCYNLETYWGQGTQVTVSS
binds		HER2 VHH (2Rs15d) G54K (VHH) VHH: QVQLQESGGGSVQAGGSLKLTCAASGYIFNSCGMGWYRQSPGRERELVSRISKDGDTWHKESVKGRFTISQDNVKKTLYLQMNSLKPEDTAVYFCAVCYNLETYWGQGTQVTVSS
